Test results from PMC3358306.

Substrate: Nc1ncnc2c1ncn2[C@@H]1O[C@H](COP(=O)(O)OP(=O)(O)OP(=O)(O)O)[C@@H](O)[C@H]1O
Assay: purified protein
Assay type: biochemical, Archaeoglobus fulgidus
Details: Mg2+ ATP binding pocket

B1: afRio1 (Rio1 kinase) (Archaeoglobus fulgidus DSM 4304) (protein)
chain: MKDLKKIESYLDKLRIKEKDGEERKIYAEVLDGRTLKTLYKLSAKGYITAMGGVISTGKEANVFYADGVFDGKPVAMAVKIYRIETSEFDKMDEYLYGDERFDMRRISPKEKVFIWTEKEFRNLERAKEAGVSVPQPYTYMKNVLLMEFIGEDELPAPTLVELGRELKELDVEGIFNDVVENVKRLYQEAELVHADLSEYNIMYIDKVYFIDMGQAVTLRHPMAESYLERDVRNIIRFFSKYGVKADFEEMLKEVKGE
notes: full-length
Km: 0.4 µM
Vmax: 0.000156 µmol/min
